Experimental data from IntAct's records for PubMed 17290217.

B1: Phosphatidylinositol 4-phosphate 5-kinase type-1 gamma (Mus musculus), O70161 (parent)
chain: MELEVPDEAESAEAGAVTAEAAWSAESGAAAGMTQKKAGLAEAPLVTGQPGPGHGKKLGHRGVDASGETTYKKTTSSTLKGAIQLGIGYTVGNLSSKPERDVLMQDFYVVESIFFPSEGSNLTPAHHFQDFRFKTYAPVAFRYFRELFGIRPDDYLYSLCNEPLIELSNPGASGSVFYVTSDDEFIIKTVMHKEAEFLQKLLPGYYMNLNQNPRTLLPKFYGLYCVQSGGKNIRVVVMNNVLPRVVKMHLKFDLKGSTYKRRASKKEKEKSLPTYKDLDFMQDMPEGLLLDSDTFGALVKTLQRDCLVLESFKIMDYSLLLGVHNIDQQERERQAEGAQSKADEKRPVAQKALYSTAMESIQGGAARGEAIETDDTMGGIPAVNGRGERLLLHIGIIDILQSYRFIKKLEHTWKALVHDGDTVSVHRPSFYAERFFKFMSSTVFRKSSSLKSSPSKKGRGALLAVKPLGPTAAFSASQIPSEREDVQYDLRGARSYPTLEDEGRPDLLPCTPPSFEEATTASIATTLSSTSLSIPERSPSDTSEQPRYRRRTQSSGQDGRPQEEPHAEDLQKITVQVEPVCGVGVVPKEEGAGVEVPPCGASAAASVEIDAASQASEPASQASDEEDAPSTDIYFPTDERSWVYSPLHYSARPASDGESDT

Variants of: B1
Details: with Ap2b1, Q9DBG3-1
Sequence of Ap2b1, Q9DBG3-1 (Q9DBG3 whole entry): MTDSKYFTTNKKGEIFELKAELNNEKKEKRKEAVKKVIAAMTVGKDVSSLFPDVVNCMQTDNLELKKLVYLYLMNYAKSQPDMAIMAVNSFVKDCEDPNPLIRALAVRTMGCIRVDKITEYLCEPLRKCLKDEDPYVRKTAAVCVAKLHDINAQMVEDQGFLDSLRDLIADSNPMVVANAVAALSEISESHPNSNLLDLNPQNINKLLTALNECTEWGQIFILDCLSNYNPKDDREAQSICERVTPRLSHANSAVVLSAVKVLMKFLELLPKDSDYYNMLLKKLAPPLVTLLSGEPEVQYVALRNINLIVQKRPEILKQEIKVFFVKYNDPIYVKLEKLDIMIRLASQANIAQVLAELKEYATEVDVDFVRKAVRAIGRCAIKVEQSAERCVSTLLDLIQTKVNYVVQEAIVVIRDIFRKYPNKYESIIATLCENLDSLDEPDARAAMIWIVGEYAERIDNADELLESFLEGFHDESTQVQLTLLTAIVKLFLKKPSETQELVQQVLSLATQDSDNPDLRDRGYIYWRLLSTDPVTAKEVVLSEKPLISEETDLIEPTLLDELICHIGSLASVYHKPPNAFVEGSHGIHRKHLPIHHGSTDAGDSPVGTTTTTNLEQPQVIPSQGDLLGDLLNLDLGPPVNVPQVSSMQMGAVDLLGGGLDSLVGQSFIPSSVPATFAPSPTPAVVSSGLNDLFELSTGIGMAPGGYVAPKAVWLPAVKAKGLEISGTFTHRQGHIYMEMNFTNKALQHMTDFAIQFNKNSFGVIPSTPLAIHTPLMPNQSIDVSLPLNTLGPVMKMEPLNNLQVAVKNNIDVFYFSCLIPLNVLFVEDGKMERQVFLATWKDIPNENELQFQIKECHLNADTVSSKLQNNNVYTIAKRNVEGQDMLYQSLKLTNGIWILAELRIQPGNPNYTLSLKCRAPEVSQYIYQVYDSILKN

effect of a mutation on the interaction | Variant
disrupting interaction | D277A

Variants of: B1
Details: with Ap2b1, Q9DBG3-2
Sequence of Ap2b1, Q9DBG3-2 (Q9DBG3 other isoform, or with tags, fused parts or gaps): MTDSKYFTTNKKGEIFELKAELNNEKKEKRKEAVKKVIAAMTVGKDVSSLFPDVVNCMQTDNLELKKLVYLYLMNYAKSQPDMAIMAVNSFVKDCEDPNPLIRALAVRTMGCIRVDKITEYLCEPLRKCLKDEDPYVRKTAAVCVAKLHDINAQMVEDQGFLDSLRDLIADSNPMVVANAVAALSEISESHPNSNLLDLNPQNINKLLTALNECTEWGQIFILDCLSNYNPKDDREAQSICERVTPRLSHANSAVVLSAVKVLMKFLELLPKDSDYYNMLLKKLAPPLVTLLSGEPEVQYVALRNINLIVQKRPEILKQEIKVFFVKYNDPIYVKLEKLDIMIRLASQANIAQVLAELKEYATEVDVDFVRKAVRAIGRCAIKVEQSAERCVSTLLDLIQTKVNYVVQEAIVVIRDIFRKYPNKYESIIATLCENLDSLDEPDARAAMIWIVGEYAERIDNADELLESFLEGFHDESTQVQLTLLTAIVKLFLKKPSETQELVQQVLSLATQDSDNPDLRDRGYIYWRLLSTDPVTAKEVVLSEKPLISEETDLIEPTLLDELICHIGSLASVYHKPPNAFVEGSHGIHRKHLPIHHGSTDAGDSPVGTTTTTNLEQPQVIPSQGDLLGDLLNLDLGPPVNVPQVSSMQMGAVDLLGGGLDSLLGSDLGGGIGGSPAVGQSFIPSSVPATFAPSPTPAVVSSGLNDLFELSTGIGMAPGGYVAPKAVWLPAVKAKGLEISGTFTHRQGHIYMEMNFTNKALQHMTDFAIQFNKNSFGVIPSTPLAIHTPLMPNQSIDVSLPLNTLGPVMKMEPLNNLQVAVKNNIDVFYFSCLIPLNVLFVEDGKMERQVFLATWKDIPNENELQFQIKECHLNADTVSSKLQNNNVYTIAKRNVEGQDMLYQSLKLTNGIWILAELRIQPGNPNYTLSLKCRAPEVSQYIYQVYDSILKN

effect of a mutation on the interaction | Variant
disrupting interaction | S645E

Variants of: B1
Details: with Ap2b1, Q9DBG3-1
Remark: another data set of the same source

effect of a mutation on the interaction | Variant
disrupting interaction | S645E
